Test results: article PMC3477312, “Characterization of Vibrio cholerae Hfq Provides Novel Insights into the Role of the Hfq C-Terminal Region” (Journal of Molecular Biology, 2012)

Legend:
[1] = target: VcNTDEcCTR (Vibrio cholerae | Escherichia coli) (UniProt Q9KV11); test: SDS-PAGE stability assay; 1 ug protein in loading buffer with 1% SDS heated at 95 °C for 0 to 300 s, 10% SDS-PAGE, hexamer and monomer bands quantified; hexamer to monomers
[2] = target: the molecule itself; test: as above
[3] = target: the molecule itself; test: SEC

| Molecule | half-life of hexamer in 1% SDS at 95 °C [1] [s] | half-life of hexamer in 1% SDS at 95 °C [2] [s] | stoichiometry N [3] |
| --- | --- | --- | --- |
| VcNTDEcCTR (from UniProt Q9KV11 1-72; P0A6X3 73-102) | 39.2 |  |  |
| VcHfq72 (domain or fragment, also called VcHfq NTD; NTD alone of VcHfq) MAKGQSLQDPFLNALRRERIPVSIYLVNGIKLQGQIESFDQFVILLKNTVNQMVYKHAISTVVPARPVSHHS |  | 32.1 ± 1.9 |  |
| Vibrio cholerae Hfq (natural protein, also called VcHfq; full-length VcHfq) MAKGQSLQDPFLNALRRERIPVSIYLVNGIKLQGQIESFDQFVILLKNTVNQMVYKHAISTVVPARPVSHHSGDRPASDRPAEKSEE |  | 33.2 ± 1.3 | 6 |
